Among the targets are MMP8 (human, UniProt P22894 101-467, limits assumed); MMP13 (human, UniProt P45452 104-471, limits assumed); MMP9 (human, UniProt P14780 107-707, limits assumed); MMP3 (human, UniProt P08254 100-477, limits assumed); Elastase.
Holding throughout (test): cell-based or functional assay
For the next assay, the target named is T1, ADAMTS4 (human, UniProt O75173 213-685, limits assumed).
T1 sequence (looked up): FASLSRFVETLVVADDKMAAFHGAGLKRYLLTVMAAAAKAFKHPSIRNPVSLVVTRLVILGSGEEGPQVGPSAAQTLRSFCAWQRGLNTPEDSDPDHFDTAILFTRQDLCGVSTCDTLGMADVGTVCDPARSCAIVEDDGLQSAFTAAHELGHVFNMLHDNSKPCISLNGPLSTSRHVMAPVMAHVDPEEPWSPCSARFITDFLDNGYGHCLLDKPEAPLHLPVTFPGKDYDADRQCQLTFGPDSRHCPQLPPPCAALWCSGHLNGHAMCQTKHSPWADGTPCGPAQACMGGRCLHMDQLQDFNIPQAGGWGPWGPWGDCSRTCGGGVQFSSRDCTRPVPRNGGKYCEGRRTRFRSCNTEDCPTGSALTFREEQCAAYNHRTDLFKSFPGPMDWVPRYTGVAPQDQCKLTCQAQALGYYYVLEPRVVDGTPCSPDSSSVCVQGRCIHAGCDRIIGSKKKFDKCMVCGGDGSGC

Another assay deals with T2, ADAMTS5 (human, UniProt Q9UNA0 262-622, limits assumed).
T2 sequence (looked up): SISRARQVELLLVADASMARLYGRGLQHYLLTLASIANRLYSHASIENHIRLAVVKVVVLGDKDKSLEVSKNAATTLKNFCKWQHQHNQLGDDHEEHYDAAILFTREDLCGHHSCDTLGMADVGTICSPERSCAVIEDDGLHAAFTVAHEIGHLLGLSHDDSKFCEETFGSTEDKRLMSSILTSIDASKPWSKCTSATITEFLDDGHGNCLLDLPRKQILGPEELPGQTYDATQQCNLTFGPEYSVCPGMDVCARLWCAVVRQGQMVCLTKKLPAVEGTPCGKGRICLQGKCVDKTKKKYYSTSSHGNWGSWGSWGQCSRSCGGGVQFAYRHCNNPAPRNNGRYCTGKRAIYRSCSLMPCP

A further assay deals with T3, MMP1 (human, UniProt P03956 100-469, limits assumed).
T3 sequence (looked up): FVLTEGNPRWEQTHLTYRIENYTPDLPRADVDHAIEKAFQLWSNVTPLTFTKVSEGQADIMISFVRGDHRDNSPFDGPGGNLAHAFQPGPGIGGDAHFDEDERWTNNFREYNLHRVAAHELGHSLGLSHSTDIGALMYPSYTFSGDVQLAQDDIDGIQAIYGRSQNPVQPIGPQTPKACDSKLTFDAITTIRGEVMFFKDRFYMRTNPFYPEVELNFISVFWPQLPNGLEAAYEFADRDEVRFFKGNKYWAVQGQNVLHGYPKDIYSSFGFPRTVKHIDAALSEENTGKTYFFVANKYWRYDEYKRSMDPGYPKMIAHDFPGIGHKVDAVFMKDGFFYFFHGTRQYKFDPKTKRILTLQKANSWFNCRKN

The next assay has as its target T4, MMP2 (human, UniProt P08253 110-660, limits assumed).
T4 sequence (looked up): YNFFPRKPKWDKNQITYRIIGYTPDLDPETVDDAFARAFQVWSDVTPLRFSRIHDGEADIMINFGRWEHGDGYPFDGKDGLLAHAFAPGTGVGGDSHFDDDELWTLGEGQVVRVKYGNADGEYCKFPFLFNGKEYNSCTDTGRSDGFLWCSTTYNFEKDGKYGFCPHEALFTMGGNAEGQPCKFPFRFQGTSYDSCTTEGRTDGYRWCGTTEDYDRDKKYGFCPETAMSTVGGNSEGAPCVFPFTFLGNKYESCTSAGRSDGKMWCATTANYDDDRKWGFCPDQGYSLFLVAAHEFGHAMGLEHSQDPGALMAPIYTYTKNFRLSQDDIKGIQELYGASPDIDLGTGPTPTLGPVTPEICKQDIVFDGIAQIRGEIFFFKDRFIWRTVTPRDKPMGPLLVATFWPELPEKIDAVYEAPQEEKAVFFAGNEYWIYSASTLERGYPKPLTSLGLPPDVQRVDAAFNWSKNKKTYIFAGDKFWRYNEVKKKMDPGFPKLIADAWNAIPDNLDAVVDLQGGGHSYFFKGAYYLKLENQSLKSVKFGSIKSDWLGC

The next assay has as its target T5, Cathepsin G (UniProt P08311 21-244).
T5 sequence (looked up): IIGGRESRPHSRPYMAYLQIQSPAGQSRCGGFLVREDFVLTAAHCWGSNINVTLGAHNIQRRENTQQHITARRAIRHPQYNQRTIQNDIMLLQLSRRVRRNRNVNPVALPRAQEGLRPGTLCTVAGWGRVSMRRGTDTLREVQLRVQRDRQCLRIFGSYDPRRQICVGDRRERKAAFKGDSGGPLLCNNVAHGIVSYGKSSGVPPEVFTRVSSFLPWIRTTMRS

Another assay has as its target T6, MMP7 (UniProt P09237 95-267, limits assumed).
T6 sequence (looked up): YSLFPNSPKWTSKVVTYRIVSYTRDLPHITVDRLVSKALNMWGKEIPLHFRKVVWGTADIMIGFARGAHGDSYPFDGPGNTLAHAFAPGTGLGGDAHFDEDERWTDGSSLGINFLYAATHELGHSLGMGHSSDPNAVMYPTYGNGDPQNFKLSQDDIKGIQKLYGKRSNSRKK

MMP8, sequence (P22894 101-467 limits assumed): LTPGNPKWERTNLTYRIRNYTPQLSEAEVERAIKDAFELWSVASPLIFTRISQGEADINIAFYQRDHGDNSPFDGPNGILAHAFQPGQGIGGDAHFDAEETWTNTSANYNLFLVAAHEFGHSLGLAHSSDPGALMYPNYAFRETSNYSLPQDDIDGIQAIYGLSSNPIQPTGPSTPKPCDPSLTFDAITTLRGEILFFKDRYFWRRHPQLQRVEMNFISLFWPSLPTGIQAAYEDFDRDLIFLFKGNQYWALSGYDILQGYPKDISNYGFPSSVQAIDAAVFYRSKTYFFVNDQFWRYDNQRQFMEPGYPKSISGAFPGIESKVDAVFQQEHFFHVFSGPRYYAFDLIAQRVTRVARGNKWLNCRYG
MMP9, sequence (P14780 107-707 limits assumed): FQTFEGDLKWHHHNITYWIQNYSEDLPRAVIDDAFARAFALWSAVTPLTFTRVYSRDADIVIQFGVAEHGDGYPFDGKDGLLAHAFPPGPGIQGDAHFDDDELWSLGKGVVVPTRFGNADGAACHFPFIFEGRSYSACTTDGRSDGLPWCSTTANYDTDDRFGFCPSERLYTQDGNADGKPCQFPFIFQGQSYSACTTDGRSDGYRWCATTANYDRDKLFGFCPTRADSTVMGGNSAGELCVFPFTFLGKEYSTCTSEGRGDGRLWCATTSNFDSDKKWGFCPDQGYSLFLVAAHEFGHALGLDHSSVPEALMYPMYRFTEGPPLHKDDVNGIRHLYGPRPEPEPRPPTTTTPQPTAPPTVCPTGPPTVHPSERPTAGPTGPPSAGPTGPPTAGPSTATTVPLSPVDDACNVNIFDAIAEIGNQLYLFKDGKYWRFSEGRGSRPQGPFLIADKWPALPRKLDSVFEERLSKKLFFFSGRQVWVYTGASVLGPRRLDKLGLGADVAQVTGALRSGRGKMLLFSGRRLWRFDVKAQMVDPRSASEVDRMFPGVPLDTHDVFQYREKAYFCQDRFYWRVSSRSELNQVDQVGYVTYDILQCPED
MMP3, sequence (P08254 100-477 limits assumed): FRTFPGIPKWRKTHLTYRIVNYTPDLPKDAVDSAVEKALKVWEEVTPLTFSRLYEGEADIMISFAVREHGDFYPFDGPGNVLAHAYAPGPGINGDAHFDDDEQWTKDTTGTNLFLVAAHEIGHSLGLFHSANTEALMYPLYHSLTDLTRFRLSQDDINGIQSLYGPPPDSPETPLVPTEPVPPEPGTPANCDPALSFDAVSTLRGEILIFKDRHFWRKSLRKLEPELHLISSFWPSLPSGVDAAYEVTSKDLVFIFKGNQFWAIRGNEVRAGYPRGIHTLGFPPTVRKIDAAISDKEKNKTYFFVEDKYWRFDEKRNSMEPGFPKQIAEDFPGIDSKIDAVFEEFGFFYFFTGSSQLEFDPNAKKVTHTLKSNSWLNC

B1: Variant A2M, bait region SEQ ID NO 9 (other)
chain: SVSGKPQYMVLVPSLLHTETTEKGCVLLSYLNETVTVSASLESVRGNRSLFTDLEAENDVLHCVAFAVPKSSSNEEVMFLTVQVKGPTQEFKKRTTVMVKNEDSLVFVQTDKSIYKPGQTVKFRVVSMDENFHPLNELIPLVYIQDPKGNRIAQWQSFQLEGGLKQFSFPLSSEPFQGSYKVVVQKKSGGRTEHPFTVEEFVLPKFEVQVTVPKIITILEEEMNVSVCGLYTYGKPVPGHVTVSICRKYSDASDCHGEDSQAFCEKFSGQLNSHGCFYQQVKTKVFQLKRKEYEMKLHTEAQIQEEGTVVELTGRQSSEITRTITKLSFVKVDSHFRQGIPFFGQVRLVDGKGVPIPNKVIFIRGNEANYYSNATTDEHGLVQFSINTTNVMGTSLTVRVNYKDRSPCYGYQWVSEEHEEAHHTAYLVFSPSKSFVHLEPMSHELPCGHTQTVQAHYILNGGTLLGLKKLSFYYLIMAKGGIVRTGTHGLLVKQEDMKGHFSISIPVKSDIAPVARLLIYAVLPTGDVIGDSAKYDVENCLANKVDLSFSPSQSLPASHAHLRVTAAPQSVCALRAVDQSVLLMKPDAELSASSVYNLLPEKDLTGFPGPLNDQDDEDCINRHNVYINGITYTPVSSTNEKDMYSFLEDMGLKAFTNSKIRKPKMCPQLEHGPEGEGEGEGIPENFFGVPRYLSEDLVVQISELEGRGSVEEPHTKLRKYFPETWIWDLVVVNSAGVAEVGVTVPDTITEWKAGAFCLSEDAGLGISSTASLRAFQPFFVELTMPYSVIRGEAFTLKATVLNYLPKCIRVSVQLEASPAFLAVPVEKEQAPHCICANGRQTVSWAVTPKSLGNVNFTVSAEALESQELCGTEVPSVPEHGRKDTVIKPLLVEPEGLEKETTFNSLLCPSGGEVSEELSLKLPPNVVEESARASVSVLGDILGSAMQNTQNLLQMPYGCGEQNMVLFAPNIYVLDYLNETQQLTPEIKSKAIGYLNTGYQRQLNYKHYDGSYSTFGERYGRNQGNTWLTAFVLKTFAQARAYIFIDEAHITQALIWLSQRQKDNGCFRSSGSLLNNAIKGGVEDEVTLSAYITIALLEIPLTVTHPVVRNALFCLESAWKTAQEGDHGSHVYTKALLAYAFALAGNQDKRKEVLKSLNEEAVKKDNSVHWERPQKPKAPVGHFYEPQAPSAEVEMTSYVLLAYLTAQPAPTSEDLTSATNIVKWITKQQNAQGGFSSTQDTVVALHALSKYGAATFTRTGKAAQVTIQSSGTFSSKFQVDNNNRLLLQQVSLPELPGEYSMKVTGEGCVYLQTSLKYNILPEKEEFPFALGVQTLPQTCDEPKAHTSFQISLSVSYTGSRSASNMAIVDVKMVSGFIPLKPTVKMLERSNHVSRTEVSSNHVLIYLDKVSNQTLSLFFTVLQDVPVRDLKPAIVKVYDYYETDEFAIAEYNAPCSKDLGNADYKDDDDKGASHHHHHH
For B1, the “Protease Inhibition (% of WT)” value is 124 % of WT in the assay with ADAMTS4; 145 % of WT in the assay with ADAMTS5; 67 % of WT with MMP1; 33 % of WT with MMP8; 88 % of WT with MMP13; 27 % of WT with MMP2. The “Protease Inhibition (% of WT)” value with MMP9 was 20 % of WT; with MMP3, 27 % of WT; in the assay with Elastase, 93 % of WT; with Cathepsin G it was 66 % of WT; with MMP7 it was 80 % of WT.

B2: Variant A2M, bait region SEQ ID NO 10 (other)
chain: SVSGKPQYMVLVPSLLHTETTEKGCVLLSYLNETVTVSASLESVRGNRSLFTDLEAENDVLHCVAFAVPKSSSNEEVMFLTVQVKGPTQEFKKRTTVMVKNEDSLVFVQTDKSIYKPGQTVKFRVVSMDENFHPLNELIPLVYIQDPKGNRIAQWQSFQLEGGLKQFSFPLSSEPFQGSYKVVVQKKSGGRTEHPFTVEEFVLPKFEVQVTVPKIITILEEEMNVSVCGLYTYGKPVPGHVTVSICRKYSDASDCHGEDSQAFCEKFSGQLNSHGCFYQQVKTKVFQLKRKEYEMKLHTEAQIQEEGTVVELTGRQSSEITRTITKLSFVKVDSHFRQGIPFFGQVRLVDGKGVPIPNKVIFIRGNEANYYSNATTDEHGLVQFSINTTNVMGTSLTVRVNYKDRSPCYGYQWVSEEHEEAHHTAYLVFSPSKSFVHLEPMSHELPCGHTQTVQAHYILNGGTLLGLKKLSFYYLIMAKGGIVRTGTHGLLVKQEDMKGHFSISIPVKSDIAPVARLLIYAVLPTGDVIGDSAKYDVENCLANKVDLSFSPSQSLPASHAHLRVTAAPQSVCALRAVDQSVLLMKPDAELSASSVYNLLPEKDLTGFPGPLNDQDDEDCINRHNVYINGITYTPVSSTNEKDMYSFLEDMGLKAFTNSKIRKPKMCPQLEHGPEGEGLGEGIPENFYGVSEDLVVQISELEGRGSVEEPHTKLRKYFPETWIWDLVVVNSAGVAEVGVTVPDTITEWKAGAFCLSEDAGLGISSTASLRAFQPFFVELTMPYSVIRGEAFTLKATVLNYLPKCIRVSVQLEASPAFLAVPVEKEQAPHCICANGRQTVSWAVTPKSLGNVNFTVSAEALESQELCGTEVPSVPEHGRKDTVIKPLLVEPEGLEKETTFNSLLCPSGGEVSEELSLKLPPNVVEESARASVSVLGDILGSAMQNTQNLLQMPYGCGEQNMVLFAPNIYVLDYLNETQQLTPEIKSKAIGYLNTGYQRQLNYKHYDGSYSTFGERYGRNQGNTWLTAFVLKTFAQARAYIFIDEAHITQALIWLSQRQKDNGCFRSSGSLLNNAIKGGVEDEVTLSAYITIALLEIPLTVTHPVVRNALFCLESAWKTAQEGDHGSHVYTKALLAYAFALAGNQDKRKEVLKSLNEEAVKKDNSVHWERPQKPKAPVGHFYEPQAPSAEVEMTSYVLLAYLTAQPAPTSEDLTSATNIVKWITKQQNAQGGFSSTQDTVVALHALSKYGAATFTRTGKAAQVTIQSSGTFSSKFQVDNNNRLLLQQVSLPELPGEYSMKVTGEGCVYLQTSLKYNILPEKEEFPFALGVQTLPQTCDEPKAHTSFQISLSVSYTGSRSASNMAIVDVKMVSGFIPLKPTVKMLERSNHVSRTEVSSNHVLIYLDKVSNQTLSLFFTVLQDVPVRDLKPAIVKVYDYYETDEFAIAEYNAPCSKDLGNADYKDDDDKGASHHHHHH
Regarding B2, the “Protease Inhibition (% of WT)” value with ADAMTS4 is 159 % of WT; with ADAMTS5 it was 412 % of WT; with MMP1, 111 % of WT; in the assay with MMP8 it was 38 % of WT; in the assay with MMP13 it was 128 % of WT; in the assay with MMP2, 25 % of WT. The “Protease Inhibition (% of WT)” value is 16 % of WT in the assay with MMP9; 27 % of WT with MMP3; 106 % of WT with Elastase; 134 % of WT with Cathepsin G; 191 % of WT with MMP7.

Values taken from patent publication US20230250154A1 (CYTONICS, published 2023).
